# Patent publication JP2011147454A (dated 2011)
# Substitutions are numbered along the chain they refer to. Where two headings read alike, the source gives them in different places.
# B1: BAK502G9 IgG4 (antibody, V domains shown)
# VH: QVQLVQSGAEVKKPGASVKVSCKASGYTFTNYGLSWVRQAPGQGLEWMGWISANNGDTNYGQEFQGRVTMTTDTSTSTAYMELRSLRSDDTAVYYCARDSSSSWARWFFDLWGRGTLVTVSS
# VL: SYVLTQPPSVSVAPGKTARITCGGNIIGSKLVHWYQQKPGQAPVLVIYDDGDRPSGIPERFSGSNSGNTATLTISRVEAGDEADYYCQVWDTGSDPVVFGGGTKLTVL
# B2: BAK1167F2 IgG4 (antibody, V domains shown)
# VH: B1 VH with T30E, N31Q, Y32T, L34V
# VL: B1 VL
# B3: BAK1183H4 IgG4 (antibody, from another filing, V domains shown)
# VH: B1 VH with S52N, A53Y, N54D, N55G, D57N, N59Q
# VL: B1 VL
# B4: CAT-213 (antibody, from another filing, V domains shown)
# VH: QVQLVQSGGGVVQPGRSLRLSCAASGFTFSSYGMHWVRQAPGKGLEWVAVISYDGSIKHYADSVKGRFTISRDNSKNTLYLQMNSLRTDDTAVYYCAGDTDYGDIDPWGQGTMVTVSS
# VL: DIQMTQSPSSVSASVGDRVTITCRASQDISSWLAWYQQKPGKAPKLLIYAASSLQSGVPSRFSGSGSGTDFTLTISSLQPEDFATYYCQQASSFPSITFGQGTRLEIKR
# B5: BAK209B11 scFv (scFv, V domains shown)
# VH: VQLQESGGGGLVQPGGSLRLSCAASGFTFSSYGMSWVRQAPGKGLEWVSSISASGDSTFYADSVKGRFTISRDNNKNMVFLQVNSLRADDTAVYFCAKDWSQWLVGDAFDVWGRGTTVTVSS
# VL: DIQLTQSPSTLSASVGDRVTITCRASQSVSLWVAWYQQRPGKAPKLLIYDGSTLQSGVPARFSGSGSGTEFTLTISSLQPDDFATYYCQQYKTFSTFGQGTKVEIK
# B6: BAK1183H4 IgG4 (antibody, V domains shown)
# VH: B1 VH with S52N, A53Y, N54D, N55G, D57N, N59Q
# VL: B1 VL with T21P
# B7: BAK209B11 IgG4 (antibody, V domains shown)
# VH: B5 VH
# VL: DIQLTQSPSTLSASVGDRVTITCRASQSVSLWVAWYQQRPGKAPKLLIYDGSTLQSGVPARFSGSGSGTEFTLTISSLQPDDFATYYCQQYKTFSTFGQGTKVEIKR
# Experiments:
# [1] = molecular target: 未変性の(天然に存在する)ヒトIL-13 (HDLM-2細胞から放出) (human) (UniProt P35225); assay: cell-based or functional assay
# [2] = molecular target: 組換え細菌由来のヒトIL-13 (Peprotech) (human) (UniProt P35225); assay: cell-based or functional assay
# [3] = molecular target: ヒト変種IL-13 (Q130R) (バキュロウイルス発現, C末端親和性タグ付き) (human) (UniProt P35225); assay: cell-based or functional assay
# [4] = molecular target: T1, 非ヒト霊長類IL-13 (アカゲザル/カニクイザル; バキュロウイルス発現, C末端親和性タグ付き) (rhesus / cynomolgus monkey); assay: cell-based or functional assay
# T1 chain: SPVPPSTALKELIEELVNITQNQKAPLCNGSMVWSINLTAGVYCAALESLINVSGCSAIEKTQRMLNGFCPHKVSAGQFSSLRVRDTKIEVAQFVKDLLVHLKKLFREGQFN
# [5] = molecular target: ヒト変種IL-13 (Q130R) (バキュロウイルス発現, C末端親和性タグ付き) (human) (UniProt P35225); assay: cell-based or functional assay; remark: listed apart in the source
# [6] = molecular target: 未変性の(天然に存在する)ヒトIL-13 (HDLM-2細胞から放出) (human) (UniProt P35225); assay: cell-based or functional assay; remark: listed apart in the source
# [7] = molecular target: 組換え細菌由来のヒトIL-13 (Peprotech) (human) (UniProt P35225); assay: cell-based or functional assay; remark: listed apart in the source
# [8] = molecular target: 野生型ヒトIL-13 (バキュロウイルス発現, C末端親和性タグ付き) (human) (UniProt P35225); assay: cell-based or functional assay
# [9] = molecular target: 組換え細菌由来のヒトIL-13 (Peprotech) (human) (UniProt P35225); assay: SPR (BIAcore 2000), IgG4 amine-coupled to chip (~500 RU), IL-13 50-0.78 nM in solution
# [10] = molecular target: 組換えヒトエオタキシン-1 (R&D Systems) (human) (UniProt P51671); assay: cell-based or functional assay
# Chain of UniProt P51671 (P51671 24-97 limits assumed): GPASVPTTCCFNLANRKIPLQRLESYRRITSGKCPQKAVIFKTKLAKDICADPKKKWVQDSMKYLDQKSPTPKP
# [11] = molecular target: T2, 組換え細菌由来のネズミIL-13 (Peprotech) (murine (mouse), UniProt P20109 21-131, limits assumed); assay: cell-based or functional assay
# T2 sequence (looked up): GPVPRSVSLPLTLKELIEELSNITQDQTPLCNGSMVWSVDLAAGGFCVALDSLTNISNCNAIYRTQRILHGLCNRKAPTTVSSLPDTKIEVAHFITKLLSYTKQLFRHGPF
# [12] = molecular target: T2, 組換え細菌由来のネズミIL-13 (Peprotech); assay: SPR (BIAcore 2000), IgG4 amine-coupled to chip (~500 RU), IL-13 50-0.78 nM in solution
molecule,measurement,setting,value
"JES10-5A2 (ラットIgG1, Biosource) (antibody)","IC50, HDLM-2細胞増殖アッセイ",[1],10.7 nM
same,"IC50, NHLFエオタキシン放出アッセイ",[2],0.623 nM
same,"IC50, TF-1細胞増殖アッセイ",[2],1.02 nM
"B-B13 (マウスIgG1, Euroclone) (antibody)","IC50, HDLM-2細胞増殖アッセイ",[1],16.7 nM
same,"IC50, NHLFエオタキシン放出アッセイ",[2],0.219 nM
same,"IC50, TF-1細胞増殖アッセイ",[2],0.471 nM
BAK502G9 IgG4 (antibody),"IC50, HDLM-2細胞増殖アッセイ",[1],4.6 nM
B1,"IC50, TF-1細胞増殖アッセイ",[3],1.9 nM
same,"IC50, TF-1細胞増殖アッセイ",[4],2 nM
B2,"IC50, TF-1細胞増殖アッセイ",[5],1.1 nM
same,"IC50, HDLM-2細胞増殖アッセイ",[6],1.1 nM
same,"IC50, HUVEC VCAM-1アップレギュレーション",[7],0.055 nM
same,"IC50, NHLFエオタキシン放出アッセイ",[7],0.069 nM
same,"IC50, TF-1細胞増殖アッセイ",[8],1 nM
same,"IC50, TF-1細胞増殖アッセイ",[4],1.3 nM
same,Kd,[9],0.136 nM
B3,"IC50, TF-1細胞増殖アッセイ",[5],1 nM
same,"IC50, HDLM-2細胞増殖アッセイ",[6],3.5 nM
same,"IC50, HUVEC VCAM-1アップレギュレーション",[7],0.058 nM
same,"IC50, NHLFエオタキシン放出アッセイ",[7],0.118 nM
same,"IC50, TF-1細胞増殖アッセイ",[8],0.9 nM
same,Kd,[9],0.081 nM
B4,"好酸球形態変化 (%ブランク形態変化), 100 nM CAT-213",[10],101%
B5,"IC50, TF-1細胞増殖アッセイ",[11],185 nM
B6,"IC50, TF-1細胞増殖アッセイ",[4],1.6 nM
B7,"IC50, B9細胞増殖アッセイ",[11],0.776 nM
same,Kd,[12],5.1 nM
